# In US20210032308A1 (published 2021):
# B1: CD2 (receptor)
# chain: KEITNALETWGALGQDINLDIPSFQMSDDIDDIKWEKTSDKKKIAQFRKEKETFKEKDTYKLFKNGTLKIKHLKTDDQDIYKVSIYDTKGKNVLEKIFDLKIQERVSKPKISWTCINTTLTCEVMNGTDPELNLYQDGKHLKLSQRVITHKWTTSLSAKFKCTAGNKVSKESSVEPVSCPEKGLD
# modifications: biotinylated (site not stated)
# What was measured:
# ML3d1-Pfe = assay: SPR
# ML1d1-Pfe = assay: SPR
binder,measurement,setting,value
B1,Kd,ML3d1-Pfe,52 nM
same,Kd,ML1d1-Pfe,82 nM
